B1: Programmed cell death protein 6 (Homo sapiens), O75340 (parent)
chain: MAAYSYRPGPGAGPGPAAGAALPDQSFLWNVFQRVDKDRSGVISDTELQQALSNGTWTPFNPVTVRSIISMFDRENKAGVNFSEFTGVWKYITDWQNVFRTYDRDNSGMIDKNELKQALSGFGYRLSDQFHDILIRKFDRQGRGQIAFDDFIQGCIVLQRLTDIFRRYDTDQDGWIQVSYEQYLSMVFSIV
partner: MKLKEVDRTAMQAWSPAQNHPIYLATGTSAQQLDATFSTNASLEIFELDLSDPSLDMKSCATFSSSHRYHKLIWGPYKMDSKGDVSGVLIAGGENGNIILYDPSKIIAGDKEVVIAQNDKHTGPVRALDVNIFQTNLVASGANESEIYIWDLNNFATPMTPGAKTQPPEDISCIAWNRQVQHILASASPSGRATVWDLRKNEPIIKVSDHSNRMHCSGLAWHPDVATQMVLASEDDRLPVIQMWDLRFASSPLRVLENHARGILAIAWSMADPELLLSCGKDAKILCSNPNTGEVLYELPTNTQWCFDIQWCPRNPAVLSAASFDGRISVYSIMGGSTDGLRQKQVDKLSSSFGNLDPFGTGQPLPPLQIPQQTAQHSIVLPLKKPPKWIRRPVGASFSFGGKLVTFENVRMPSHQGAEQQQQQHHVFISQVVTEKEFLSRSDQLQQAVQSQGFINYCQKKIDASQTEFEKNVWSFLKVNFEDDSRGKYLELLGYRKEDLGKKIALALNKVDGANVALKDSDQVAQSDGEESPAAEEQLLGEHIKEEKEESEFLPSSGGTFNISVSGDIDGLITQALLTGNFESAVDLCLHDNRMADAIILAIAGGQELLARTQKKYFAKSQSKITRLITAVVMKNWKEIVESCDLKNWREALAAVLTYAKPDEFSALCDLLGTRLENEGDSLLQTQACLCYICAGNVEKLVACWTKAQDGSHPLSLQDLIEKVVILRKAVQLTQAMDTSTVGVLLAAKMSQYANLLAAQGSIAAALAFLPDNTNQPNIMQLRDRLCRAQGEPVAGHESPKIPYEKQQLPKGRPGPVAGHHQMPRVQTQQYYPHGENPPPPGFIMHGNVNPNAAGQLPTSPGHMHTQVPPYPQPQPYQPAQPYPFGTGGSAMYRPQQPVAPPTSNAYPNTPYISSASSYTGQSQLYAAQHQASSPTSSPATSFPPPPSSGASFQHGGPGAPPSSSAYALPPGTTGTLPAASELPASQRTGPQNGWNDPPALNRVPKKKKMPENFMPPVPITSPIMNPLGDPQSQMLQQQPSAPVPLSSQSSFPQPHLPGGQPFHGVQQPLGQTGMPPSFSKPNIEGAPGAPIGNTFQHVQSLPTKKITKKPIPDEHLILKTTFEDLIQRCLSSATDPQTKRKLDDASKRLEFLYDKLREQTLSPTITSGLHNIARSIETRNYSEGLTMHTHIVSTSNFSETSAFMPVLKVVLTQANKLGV

Variants of: B1
Conditions: with sc31a_human SEC31A

Row | Variant | effect of a mutation on the interaction
1 | E47A;E114A | decreasing interaction
